The text below walks through data of the supplement of paper PMC10126150.

The data set relates to ATP. Nature of the data set: switch fluorescence ratio, 500 uM ATP over buffer (Cy3 cluster intensity, sum of 5 cycles each) (fold (ratio)); higher = stronger signal-on switching upon ATP binding; sequences stand for … in TCGTCGGCAGCGTCAGATGTGTATAAGAGACAGTTTTTTTTTTTTTTTTTTTTTTTTT…TC. The settings on record: aptamer strand: ATP DNA aptamer (quencher-CACCTGGGGGAGTATTGCGGAGGAAGG + anchor), 100 nM annealed; ATP concentration: 500 uM. In outline: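 Switching-strand clusters labelled with Cy3 on a modified Illumina MiSeq flow-cell were annealed to 100 nM quencher-labelled ATP aptamer, imaged in selection buffer, and re-imaged after 15 min with 500 uM ATP at 22 °C. This was done over five cycles with NaOH stripping and re-annealing in between. The fluorescence ratio is summed target-cycle over summed buffer-cycle Cy3 intensity per cluster, averaged per switch-domain sequence, excluding clusters outside 100-1000 RFU.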

± gives the standard deviation of the averaged measurements.
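Also: ATP exposure 15 min at 22 °C before imaging.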

As to ATTATGGACG, the switch fluorescence ratio came out at 1.06 ± 0.073. Regarding GAATCATTTT, the switch fluorescence ratio is 1.02 ± 0.036.

With CATGGGGTAA, the switch fluorescence ratio amounted to 0.99 ± 0.014. For the sequence TATGTTTTCT, the switch fluorescence ratio was determined as 1.01 ± 0.039. With GGTCGATGGT the figure was 0.99 ± 0.011; with TTTAATTGGT, 1.02 ± 0.021; with GGGCGGTTTT, 0.993 ± 0.043. Consider ATATGCCCT, for which the switch fluorescence ratio worked out at 1.04 ± 0.03. In the case of ACAAACGTTC, the switch fluorescence ratio was 1.34 ± 0.13. On to TTATAATGGC, for which the switch fluorescence ratio worked out at 1.02 ± 0.08. CTAAAATGCT: the switch fluorescence ratio was 1.042 ± 0.0088. On to TTGGGTCTGG, for which the switch fluorescence ratio came to 0.965 ± 0.02. Turning to TCTGGTAGAG, the switch fluorescence ratio was 1.02 ± 0.023. For the sequence GTTGGGACGT, the switch fluorescence ratio amounted to 0.973 ± 0.013. TTTGCTAGAT: the switch fluorescence ratio was found to be 1.047 ± 0.0097. As to GCGTCGGTGT, the switch fluorescence ratio is 0.98 ± 0.01. For TGTTGTAGAC, the switch fluorescence ratio was 0.961 ± 0.0098. On to TCGCATTTTT, for which the switch fluorescence ratio is 1.11 ± 0.13. For the sequence CAGTTATTCG, the switch fluorescence ratio worked out at 0.977 ± 0.014. Turning to GGTTGCCTGC, the switch fluorescence ratio was determined as 0.96 ± 0.029. As for ATATTTTGGG, the switch fluorescence ratio was 1.003 ± 0.0089. With ATGTATGATA, the switch fluorescence ratio was found to be 0.967 ± 0.013. As for CATCTGCGTT, the switch fluorescence ratio came out at 1.58 ± 0.11. For the sequence TTAAGTTGAT, the switch fluorescence ratio came out at 0.988 ± 0.033. On to AGGGAGTCTG, for which the switch fluorescence ratio worked out at 1.018 ± 0.0035.

Regarding AAGGGGAGGA, the switch fluorescence ratio amounted to 0.989 ± 0.016.

With GACGGGGTAG, the switch fluorescence ratio turned out to be 1 ± 0.048. In the case of GAATAGGGCC it was 1.01 ± 0.028; in that of ATTCAACGGT, 1.02 ± 0.0048; in that of TGATGGAGGG, 0.997 ± 0.026. Consider ATAGCGCCGT, for which the switch fluorescence ratio came to 1.01 ± 0.011. In the case of CGTCGCGGCA it was 0.989 ± 0.026; in that of TTATGGGAGA, 1.04 ± 0.042. Take AGGGATGCGG: the switch fluorescence ratio was 0.99607 ± 0.00094. For AAAAGGATAG, the switch fluorescence ratio was 0.954 ± 0.017. On to CGGTGGTTTG, for which the switch fluorescence ratio came to 0.996 ± 0.026. With TGTTGGGACG the figure was 1.1 ± 0.039; with TTCAATTGTT, 1.02 ± 0.017. In the case of GATTTTAATA it was 1.02 ± 0.016. In the case of TTTTTTTTTC it was 1.04 ± 0.11; in that of GGGCTAAGAG, 1.05 ± 0.038.

For the sequence TATGGAGGTT, the switch fluorescence ratio amounted to 0.969 ± 0.0074. On to AAGGCTTCTT, for which the switch fluorescence ratio was 1 ± 0.015. Regarding GGCTGGGGGT, the switch fluorescence ratio is 1.1 ± 0.07. On to AAAGATTGTT, for which the switch fluorescence ratio worked out at 0.954 ± 0.011. As for TTATGAAAGC, the switch fluorescence ratio turned out to be 1.02 ± 0.042.

For GGATGATCGT, the switch fluorescence ratio is 0.954 ± 0.029. As to CGGTGTGCCT, the switch fluorescence ratio came to 0.966 ± 0.029. Consider AAAAAGGTTC, for which the switch fluorescence ratio was determined as 0.991 ± 0.017.

With CTGATGGGGT, the switch fluorescence ratio was determined as 1 ± 0.013. In the case of ATGATGTTGA it was 1 ± 0.04; in that of TTATTCGGTG, 0.98 ± 0.021; in that of AAGTGAAAGC, 1.01 ± 0.068.

Consider GTGTCAGTTG, for which the switch fluorescence ratio came to 0.93646 ± 0.00087. Regarding TGATTCTCTT, the switch fluorescence ratio turned out to be 1 ± 0.027.

Turning to GGGTTAATAC, the switch fluorescence ratio was determined as 1.29 ± 0.069. For TTTTTACCGA, the switch fluorescence ratio worked out at 1.014 ± 0.0082. Consider ATGTATTTAT, for which the switch fluorescence ratio came to 1.04 ± 0.061. In the case of ATTTGAGAAA, the switch fluorescence ratio amounted to 1.01 ± 0.025. Consider GGTGGGTAAT, for which the switch fluorescence ratio worked out at 0.983 ± 0.015. Regarding AATATGTGAG, the switch fluorescence ratio was 0.995 ± 0.028. As to AAAGAGTGTT, the switch fluorescence ratio is 0.9776 ± 0.0081. With CATCGGGGTT the figure was 1.01 ± 0.002. In the case of TACTTTCCCG, the switch fluorescence ratio was determined as 1.29 ± 0.13. With TTTCTGTATC the figure was 1.04 ± 0.044; with ATGATGTAGG, 1.033 ± 0.0075.

For ATGGGTCTCG, the switch fluorescence ratio amounted to 0.966 ± 0.019. With TGGAGAGTGT the figure was 0.963 ± 0.036.

On to ATTAGTCCGG, for which the switch fluorescence ratio turned out to be 0.994 ± 0.03.

As for CAAAGAAAAT, the switch fluorescence ratio was 0.9943 ± 0.0062.

Take ACGGGCCGGG: the switch fluorescence ratio came out at 1.02 ± 0.12. With TTTACCACCT the figure was 1.27 ± 0.096. TAGCGGGCCG: the switch fluorescence ratio came to 1.01 ± 0.039. With TTACTGAGGT, the switch fluorescence ratio amounted to 0.992 ± 0.017.

Consider TTGAATGCCA, for which the switch fluorescence ratio is 0.99 ± 0.028.

TAGGGTTTGT: the switch fluorescence ratio worked out at 0.989 ± 0.031.

For TGTAGTAACG, the switch fluorescence ratio came to 0.982 ± 0.012. With ATCGAAAAGG, the switch fluorescence ratio was determined as 0.998 ± 0.027. With CTAGGTAAAC the figure was 1.06 ± 0.012. TGACCCGTAC: the switch fluorescence ratio is 2.64 ± 1.7.

As for TAACATAATT, the switch fluorescence ratio worked out at 1 ± 0.023. For the sequence GCTCTCTTTT, the switch fluorescence ratio came out at 0.9805 ± 0.0037. For ACCCTTTTAC, the switch fluorescence ratio is 1.13 ± 0.052. Consider CAGTGCGCGC, for which the switch fluorescence ratio was found to be 1.01 ± 0.026. Take CGGTTGGGGG: the switch fluorescence ratio is 0.962 ± 0.033.

With GCTGTAAAGA, the switch fluorescence ratio worked out at 0.983 ± 0.029. In the case of TCGGGGCAGT, the switch fluorescence ratio was found to be 2.01 ± 1.4. Regarding TAAATTTGTA, the switch fluorescence ratio is 0.99 ± 0.028. In the case of TAGTAATATT, the switch fluorescence ratio was 1.11 ± 0.12.

For the sequence ATGAGCGCAC, the switch fluorescence ratio came out at 1.06 ± 0.024. For AGAAGGGGAC, the switch fluorescence ratio came out at 1.02 ± 0.026. With TAATGTGTTA the figure was 1.04 ± 0.13; with ATGTATGTTA, 0.978 ± 0.055; with TGCATTTAAT, 1.01 ± 0.027. In the case of CAGTTGAGGT it was 0.998 ± 0.013; in that of TATTTTTCCG, 1.03 ± 0.012; in that of CTGGGGTGTA, 1.03 ± 0.059. Consider CGCTCAAAGG, for which the switch fluorescence ratio was found to be 1.03 ± 0.015. With AAATTGGGAT the figure was 0.9636 ± 0.0093; with TTGGTGCGGA, 0.975 ± 0.056. As for TTATTCTGTT, the switch fluorescence ratio was 0.976 ± 0.047.

In the case of GTGGAACATT, the switch fluorescence ratio came out at 1.02 ± 0.049. With TCTTGAGCTT the figure was 1.04 ± 0.03; with GTTCTTTTAT, 1.01 ± 0.024. In the case of GGGGTACGCG it was 0.984 ± 0.024; in that of TAAATTTTAA, 0.9818 ± 0.0082. Turning to ATTTGACTTC, the switch fluorescence ratio was 1.12 ± 0.19. On to ATGGACGGGT, for which the switch fluorescence ratio was 0.996 ± 0.03. Turning to TGTGGGCATT, the switch fluorescence ratio came out at 1.019 ± 0.0053. Consider GGGATTGAAT, for which the switch fluorescence ratio came out at 1.01 ± 0.032.

Regarding GGGGTGGGTG, the switch fluorescence ratio was found to be 1.03 ± 0.039.

Regarding TGTCGGTGGG, the switch fluorescence ratio is 0.992 ± 0.016.

In the case of TTCAGACAGG, the switch fluorescence ratio stood at 1.09 ± 0.02. As to GTAATTGGGA, the switch fluorescence ratio came to 1.022 ± 0.0011. In the case of TGAAGTGGGG it was 0.954 ± 0.016; in that of AGACGGGTAG, 0.968 ± 0.032; in that of TATCATGGTG, 1.05 ± 0.058. TTGGTTCATT: the switch fluorescence ratio is 1.01 ± 0.021.

Consider GCATTATTGG, for which the switch fluorescence ratio came to 0.998 ± 0.016.

For the sequence TTTGGTATGT, the switch fluorescence ratio came out at 1.03 ± 0.057.
